Results on six proteins are retold here after article PMC9253678, “Computer-Aided Design of α-L-Rhamnosidase to Increase the Synthesis Efficiency of Icariside I” (Frontiers in Bioengineering and Biotechnology, 2022).

Broadly, the Km is the concentration of substrate that gives half-maximal velocity. Broadly, the Vmax is the rate approached at saturating substrate. A word on the kcat: it is the number of substrate molecules converted per active site and unit of time at saturation. By kcat/Km is commonly meant the second-order rate constant that governs catalysis at low substrate concentration.

Substrate in this data set: COc1ccc(-c2oc3c(CC=C(C)C)c(O[C@@H]4O[C@H](CO)[C@@H](O)[C@H](O)[C@H]4O)cc(O)c3c(=O)c2O[C@@H]2O[C@@H](C)[C@H](O)[C@@H](O)[C@H]2O)cc1
Briefly: HPLC of icariside I formation, Michaelis-Menten nonlinear fit. Format: biochemical, Thermotoga petrophila. An excerpt: HPLC of icariside I formation, Michaelis-Menten nonlinear fit on […]

The mark [1] stands for this setting: optimal conditions of the mutant: 85°C, pH 4.6, icariin 0.1–4 mg/ml.
[2] abbreviates: optimal conditions of the enzyme: 80°C, pH 5.0, disodium hydrogen phosphate-citrate buffer, icariin 0.1–4 mg/ml.
Setting [3] is: optimal conditions of the mutant: 80°C, pH 6.0, icariin 0.1–4 mg/ml.
Where [4] appears, read: optimal conditions of the mutant: 85°C, pH 5.0, icariin 0.1–4 mg/ml.
[5] abbreviates: optimal conditions of the mutant: 80°C, pH 5.0, icariin 0.1–4 mg/ml.

B1: TpeRha (Thermotoga petrophila RKU-1; D506A/H570A/K579A) (protein)
chain: MIQACDLRCEYLTSPVLGLDVIPRFSWRLKGNGKKQTRYKIIVSDNFDDIERGIGNVWESEKDSSKNLNIEYEGPKLKAYKGYYWRVKLWDEKENGPWSETAYFEMGPLEDWRGKWITMPSPLSFKDPAHRHELFYAMYFRKEFLLNKEVEKARVYVSGLGVYELHLNGKRVGNNVLDPAPTDYNKVALYSTYDVTQYLTTGKNTIGVILGNGRHIRDYGYSKPKLYLQLLVFYKDGSREFICSDETWKVSHGPLKENGIYFGEVYDARDEISGWDSPGFDDRNWSEVEIVEGPSLKAQLIPVIRVCEVIKPKRLWLSSRGTFIVDFGKNISGWVKLRVNNGKRGEKIIIRYAEVLDPSMDRLDTRNLRLARATDEYILKGQGVEIYEPRFTYHGFRYVEVEDYPGTLTSDNIEAMFVHTDVEKVGDFACSSELLNKIHSCVVNSQLANLMGIPTDCPQRDERMGWLGDAQLTVEEAMYNFDMAAFYTKYLMDIKLSQKEDGSISAVAPPYWKRYPSDPAWGTAYATILWYLYFFYEDRRVLEEHYDSLKRYVEFLRKNSPNHLTKLGQAGDWCPPGDAFPKRTPLILTSTWYYYHDTLILSEIAKILGKKEDEHEYRKLAGEIKEAFNRHFLRKVEDHTGRIVCFYRGIKLSPKDRIPTTQTCNVLPLWNKMVPEECREDVFKVLERLIEVDNDTHFDTGIVGTRYILEVLSENGRKDLALKLLLKEDYPSFGYMIKNGATTLWERWEKLEGTGMNSHNHVMLGSVDTWFYKYLSGIKPVAPGWKKIRIEPYFADQIDFVSAKIKTPNGSLEVSWKKQNKEYEIQIIIPVNTVGIFAVPESFKVSAINSKQVSYPSEFELEPGAYNIVLERVREC
notes: codon-optimized synthetic gene in pET-28a, E. coli BL21(DE3), Ni-NTA purified (His tag of vector); model domains span 1-861
Turning to B1, under setting [1], the Km came to 1.11 ± 0.34 µM, the Vmax turned out to be 6.59 µM/min, the kcat came out at 0.000212 s⁻¹ and the kcat/Km is 191 M⁻¹ s⁻¹.

B2: TpeRha (Thermotoga petrophila RKU-1) (protein)
chain: MIQACDLRCEYLTSPVLGLDVIPRFSWRLKGNGKKQTRYKIIVSDNFDDIERGIGNVWESEKDSSKNLNIEYEGPKLKAYKGYYWRVKLWDEKENGPWSETAYFEMGPLEDWRGKWITMPSPLSFKDPAHRHELFYAMYFRKEFLLNKEVEKARVYVSGLGVYELHLNGKRVGNNVLDPAPTDYNKVALYSTYDVTQYLTTGKNTIGVILGNGRHIRDYGYSKPKLYLQLLVFYKDGSREFICSDETWKVSHGPLKENGIYFGEVYDARDEISGWDSPGFDDRNWSEVEIVEGPSLKAQLIPVIRVCEVIKPKRLWLSSRGTFIVDFGKNISGWVKLRVNNGKRGEKIIIRYAEVLDPSMDRLDTRNLRLARATDEYILKGQGVEIYEPRFTYHGFRYVEVEDYPGTLTSDNIEAMFVHTDVEKVGDFACSSELLNKIHSCVVNSQLANLMGIPTDCPQRDERMGWLGDAQLTVEEAMYNFDMAAFYTKYLMDIKLSQKEDGSISDVAPPYWKRYPSDPAWGTAYATILWYLYFFYEDRRVLEEHYDSLKRYVEFLRKNSPNHLTKLGQHGDWCPPGDKFPKRTPLILTSTWYYYHDTLILSEIAKILGKKEDEHEYRKLAGEIKEAFNRHFLRKVEDHTGRIVCFYRGIKLSPKDRIPTTQTCNVLPLWNKMVPEECREDVFKVLERLIEVDNDTHFDTGIVGTRYILEVLSENGRKDLALKLLLKEDYPSFGYMIKNGATTLWERWEKLEGTGMNSHNHVMLGSVDTWFYKYLSGIKPVAPGWKKIRIEPYFADQIDFVSAKIKTPNGSLEVSWKKQNKEYEIQIIIPVNTVGIFAVPESFKVSAINSKQVSYPSEFELEPGAYNIVLERVREC
notes: as for B1
For the protein B2, under setting [2], the Km is 4.33 ± 3.47 µM, the Vmax was determined as 0.098 µM/min, the catalytic constant (kcat) came to 4e-06 s⁻¹ and the kcat/Km was found to be 0.923 M⁻¹ s⁻¹.

B3: TpeRha (Thermotoga petrophila RKU-1; H570A) (protein)
chain: MIQACDLRCEYLTSPVLGLDVIPRFSWRLKGNGKKQTRYKIIVSDNFDDIERGIGNVWESEKDSSKNLNIEYEGPKLKAYKGYYWRVKLWDEKENGPWSETAYFEMGPLEDWRGKWITMPSPLSFKDPAHRHELFYAMYFRKEFLLNKEVEKARVYVSGLGVYELHLNGKRVGNNVLDPAPTDYNKVALYSTYDVTQYLTTGKNTIGVILGNGRHIRDYGYSKPKLYLQLLVFYKDGSREFICSDETWKVSHGPLKENGIYFGEVYDARDEISGWDSPGFDDRNWSEVEIVEGPSLKAQLIPVIRVCEVIKPKRLWLSSRGTFIVDFGKNISGWVKLRVNNGKRGEKIIIRYAEVLDPSMDRLDTRNLRLARATDEYILKGQGVEIYEPRFTYHGFRYVEVEDYPGTLTSDNIEAMFVHTDVEKVGDFACSSELLNKIHSCVVNSQLANLMGIPTDCPQRDERMGWLGDAQLTVEEAMYNFDMAAFYTKYLMDIKLSQKEDGSISDVAPPYWKRYPSDPAWGTAYATILWYLYFFYEDRRVLEEHYDSLKRYVEFLRKNSPNHLTKLGQAGDWCPPGDKFPKRTPLILTSTWYYYHDTLILSEIAKILGKKEDEHEYRKLAGEIKEAFNRHFLRKVEDHTGRIVCFYRGIKLSPKDRIPTTQTCNVLPLWNKMVPEECREDVFKVLERLIEVDNDTHFDTGIVGTRYILEVLSENGRKDLALKLLLKEDYPSFGYMIKNGATTLWERWEKLEGTGMNSHNHVMLGSVDTWFYKYLSGIKPVAPGWKKIRIEPYFADQIDFVSAKIKTPNGSLEVSWKKQNKEYEIQIIIPVNTVGIFAVPESFKVSAINSKQVSYPSEFELEPGAYNIVLERVREC
notes: as for B1
As to B3, under setting [3], the Km stood at 0.92 ± 0.08 µM, the Vmax was 1.19 µM/min, the kcat turned out to be 3.64e-05 s⁻¹ and the kcat/Km worked out at 39.5 M⁻¹ s⁻¹.

B4: TpeRha (Thermotoga petrophila RKU-1; D506A/H570A) (protein)
chain: MIQACDLRCEYLTSPVLGLDVIPRFSWRLKGNGKKQTRYKIIVSDNFDDIERGIGNVWESEKDSSKNLNIEYEGPKLKAYKGYYWRVKLWDEKENGPWSETAYFEMGPLEDWRGKWITMPSPLSFKDPAHRHELFYAMYFRKEFLLNKEVEKARVYVSGLGVYELHLNGKRVGNNVLDPAPTDYNKVALYSTYDVTQYLTTGKNTIGVILGNGRHIRDYGYSKPKLYLQLLVFYKDGSREFICSDETWKVSHGPLKENGIYFGEVYDARDEISGWDSPGFDDRNWSEVEIVEGPSLKAQLIPVIRVCEVIKPKRLWLSSRGTFIVDFGKNISGWVKLRVNNGKRGEKIIIRYAEVLDPSMDRLDTRNLRLARATDEYILKGQGVEIYEPRFTYHGFRYVEVEDYPGTLTSDNIEAMFVHTDVEKVGDFACSSELLNKIHSCVVNSQLANLMGIPTDCPQRDERMGWLGDAQLTVEEAMYNFDMAAFYTKYLMDIKLSQKEDGSISAVAPPYWKRYPSDPAWGTAYATILWYLYFFYEDRRVLEEHYDSLKRYVEFLRKNSPNHLTKLGQAGDWCPPGDKFPKRTPLILTSTWYYYHDTLILSEIAKILGKKEDEHEYRKLAGEIKEAFNRHFLRKVEDHTGRIVCFYRGIKLSPKDRIPTTQTCNVLPLWNKMVPEECREDVFKVLERLIEVDNDTHFDTGIVGTRYILEVLSENGRKDLALKLLLKEDYPSFGYMIKNGATTLWERWEKLEGTGMNSHNHVMLGSVDTWFYKYLSGIKPVAPGWKKIRIEPYFADQIDFVSAKIKTPNGSLEVSWKKQNKEYEIQIIIPVNTVGIFAVPESFKVSAINSKQVSYPSEFELEPGAYNIVLERVREC
notes: as for B1
Take B4: under setting [1], the Km came out at 0.51 ± 0.13 µM, the Vmax is 2.5 µM/min, the kcat is 9.87e-05 s⁻¹ and the kcat/Km was found to be 194 M⁻¹ s⁻¹.

B5: TpeRha (Thermotoga petrophila RKU-1; D506A) (protein)
chain: MIQACDLRCEYLTSPVLGLDVIPRFSWRLKGNGKKQTRYKIIVSDNFDDIERGIGNVWESEKDSSKNLNIEYEGPKLKAYKGYYWRVKLWDEKENGPWSETAYFEMGPLEDWRGKWITMPSPLSFKDPAHRHELFYAMYFRKEFLLNKEVEKARVYVSGLGVYELHLNGKRVGNNVLDPAPTDYNKVALYSTYDVTQYLTTGKNTIGVILGNGRHIRDYGYSKPKLYLQLLVFYKDGSREFICSDETWKVSHGPLKENGIYFGEVYDARDEISGWDSPGFDDRNWSEVEIVEGPSLKAQLIPVIRVCEVIKPKRLWLSSRGTFIVDFGKNISGWVKLRVNNGKRGEKIIIRYAEVLDPSMDRLDTRNLRLARATDEYILKGQGVEIYEPRFTYHGFRYVEVEDYPGTLTSDNIEAMFVHTDVEKVGDFACSSELLNKIHSCVVNSQLANLMGIPTDCPQRDERMGWLGDAQLTVEEAMYNFDMAAFYTKYLMDIKLSQKEDGSISAVAPPYWKRYPSDPAWGTAYATILWYLYFFYEDRRVLEEHYDSLKRYVEFLRKNSPNHLTKLGQHGDWCPPGDKFPKRTPLILTSTWYYYHDTLILSEIAKILGKKEDEHEYRKLAGEIKEAFNRHFLRKVEDHTGRIVCFYRGIKLSPKDRIPTTQTCNVLPLWNKMVPEECREDVFKVLERLIEVDNDTHFDTGIVGTRYILEVLSENGRKDLALKLLLKEDYPSFGYMIKNGATTLWERWEKLEGTGMNSHNHVMLGSVDTWFYKYLSGIKPVAPGWKKIRIEPYFADQIDFVSAKIKTPNGSLEVSWKKQNKEYEIQIIIPVNTVGIFAVPESFKVSAINSKQVSYPSEFELEPGAYNIVLERVREC
notes: as for B1
In the case of B5, under setting [4], the Km came out at 3.12 ± 0.26 µM, the Vmax is 1.91 µM/min, the kcat was found to be 4.64e-05 s⁻¹ and the kcat/Km turned out to be 14.9 M⁻¹ s⁻¹.

B6: TpeRha (Thermotoga petrophila RKU-1; K579A) (protein)
chain: MIQACDLRCEYLTSPVLGLDVIPRFSWRLKGNGKKQTRYKIIVSDNFDDIERGIGNVWESEKDSSKNLNIEYEGPKLKAYKGYYWRVKLWDEKENGPWSETAYFEMGPLEDWRGKWITMPSPLSFKDPAHRHELFYAMYFRKEFLLNKEVEKARVYVSGLGVYELHLNGKRVGNNVLDPAPTDYNKVALYSTYDVTQYLTTGKNTIGVILGNGRHIRDYGYSKPKLYLQLLVFYKDGSREFICSDETWKVSHGPLKENGIYFGEVYDARDEISGWDSPGFDDRNWSEVEIVEGPSLKAQLIPVIRVCEVIKPKRLWLSSRGTFIVDFGKNISGWVKLRVNNGKRGEKIIIRYAEVLDPSMDRLDTRNLRLARATDEYILKGQGVEIYEPRFTYHGFRYVEVEDYPGTLTSDNIEAMFVHTDVEKVGDFACSSELLNKIHSCVVNSQLANLMGIPTDCPQRDERMGWLGDAQLTVEEAMYNFDMAAFYTKYLMDIKLSQKEDGSISDVAPPYWKRYPSDPAWGTAYATILWYLYFFYEDRRVLEEHYDSLKRYVEFLRKNSPNHLTKLGQHGDWCPPGDAFPKRTPLILTSTWYYYHDTLILSEIAKILGKKEDEHEYRKLAGEIKEAFNRHFLRKVEDHTGRIVCFYRGIKLSPKDRIPTTQTCNVLPLWNKMVPEECREDVFKVLERLIEVDNDTHFDTGIVGTRYILEVLSENGRKDLALKLLLKEDYPSFGYMIKNGATTLWERWEKLEGTGMNSHNHVMLGSVDTWFYKYLSGIKPVAPGWKKIRIEPYFADQIDFVSAKIKTPNGSLEVSWKKQNKEYEIQIIIPVNTVGIFAVPESFKVSAINSKQVSYPSEFELEPGAYNIVLERVREC
notes: as for B1
For the protein B6, under setting [5], the Km is 1.24 ± 0.09 µM, the Vmax came out at 1.97 µM/min, the kcat worked out at 4.31e-05 s⁻¹ and the kcat/Km amounted to 34.7 M⁻¹ s⁻¹.
